This note sets out measurements from US20190322720A1 (PRECISION BIOLOGICS, published 2019).

Assay [1] has as its target T1, MUC5AC truncation construct 1-85 (human, UniProt P98088 1734-1794).
T1 construct: also called 85 residue construct
T1 chain: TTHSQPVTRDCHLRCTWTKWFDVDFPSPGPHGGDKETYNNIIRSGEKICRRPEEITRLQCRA
In words: immunofluorescence, transfected 293T cells. The method, then:
(§1) Cells were transiently transfected with 2 μg of MUC5AC constructs of Table 8 with LIPOFECTAMINE®. Cells were grown for about 72 hours, fixed with about 4% PFA in PBS, washed with PBS, permeabilized with about 0.2% […] in PBS and washed with PBS. Cells were then blocked with about 1% BSA in PBS, and about 2 μg/ml NPC-1 antibody was added to sample wells and about 2 μg/ml of an Isotype control was added for 1 hour at room temp. Cells were washed with PBS and second anti human-FITC antibody (1:500) was added to all wells and to the second antibody control wells. Cells were washed and mounted on slides with DAPI hard mount. Cover slides were allowed to sit over night at about 4° C. Slides were visualized with a Nikon Eclipse Ti microscope with an Andor camera. At least 3 random fields were counted per transfection.
(§2) This strategy was used to identify an about 15 amino acid-region that contains a NPC-1 epitope: […] (SEQ ID NO: 37). […] This is a repetitive sequence that also has some changes in it which are also probable scaffold for the binding sites for the NPC-1C antibody. This repetitive sequence and variations can be found in the longer deletions of MUC5AC and MUC5AC itself.

In assay [2] the target is T2, MUC5AC truncation construct 1-136 (human, UniProt P98088 3212-4055).
T2 construct: also called 136 residue construct
T2 sequence: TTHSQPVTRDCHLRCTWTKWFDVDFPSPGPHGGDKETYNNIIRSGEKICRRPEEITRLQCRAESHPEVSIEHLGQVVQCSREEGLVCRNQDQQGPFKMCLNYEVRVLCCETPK
As to the kind of experiment: immunofluorescence, transfected 293T cells. The method, then:
as §1, §2

B1: NPC-1C (antibody, V domains shown)
VH: QVQLKESGPDLVAPSQSLSITCTVSGFSLSKFGVNWVRQPPGKGLEWLGVIWGDGSTSYNSGLISRLSISKENSKSQVFLKLNSLQADDTATYYCVKPGGDYWGHGTSVTVSS
VL: QVVLTQSPVIMSASPGEKVTMTCSASSSISYMYWYQQKPGTSPKRWIYDTSKLASGVPARFSGSGSGTSYSLTISNMEAGDAATYYCHQRDSYPWTFGGGTNLEIK
notes: Chimeric antibody with human IgG1 constant regions, made in CHO cells; used plain, biotin- or FITC-labelled, or coupled to beads; also called NEO-101; ensituximab
For the molecule B1, the binding result in assay [1] and in assay [2] was “no binding (tested: about 2 µg/ml)” throughout.
